What all share (assay): two-hybrid library CCNG1;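 also: natural log of median RNA to DNA barcode read ratio; higher means stronger binding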
Assay [1] addresses T1, O6-bS.
T1 chain: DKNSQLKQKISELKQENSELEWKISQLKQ

For assay [2], the target named is T2, O4-bS.
T2 chain: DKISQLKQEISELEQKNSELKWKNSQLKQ

Assay [3] addresses T3, O9-bS.
T3 chain: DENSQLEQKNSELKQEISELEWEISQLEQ

Assay [4] addresses T4, O8-bS.
T4 chain: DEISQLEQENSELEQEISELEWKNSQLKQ

The target in assay [5] is T5, O5-bS.
T5 chain: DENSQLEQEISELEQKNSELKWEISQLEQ

For assay [6], the target named is T6, O7-bS.
T6 chain: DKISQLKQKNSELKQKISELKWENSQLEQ

The target of assay [7] is T7, 4H4073-bA.
T7 chain: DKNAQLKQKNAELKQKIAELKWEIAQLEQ

In assay [8] the target is T8, 4H855-bA.
T8 chain: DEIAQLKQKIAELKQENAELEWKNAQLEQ

Assay [9] addresses T9, 4H780-bA.
T9 chain: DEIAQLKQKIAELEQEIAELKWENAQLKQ

Assay [10] deals with T10, 4H918-bA.
T10 chain: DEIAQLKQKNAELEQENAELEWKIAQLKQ

Assay [11] has as its target T11, 4H3112-bA.
T11 chain: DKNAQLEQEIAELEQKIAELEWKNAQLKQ

Assay [12] concerns the target T12, 4H968-bA.
T12 chain: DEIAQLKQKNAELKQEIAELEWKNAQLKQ

In assay [13] the target is T13, 4H754-bA.
T13 chain: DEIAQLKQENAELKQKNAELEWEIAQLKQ

In assay [14] the target is T14, 4H346-bA.
T14 chain: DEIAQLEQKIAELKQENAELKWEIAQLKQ

Assay [15] has as its target T15, 4H797-bA.
T15 chain: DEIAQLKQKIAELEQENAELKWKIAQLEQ

Assay [16] deals with T16, 4H457-bA.
T16 chain: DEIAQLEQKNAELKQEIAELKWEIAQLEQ

Assay [17] has as its target T17, 4H3010-bA.
T17 chain: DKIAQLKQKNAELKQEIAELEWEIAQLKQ

The target of assay [18] is T18, 4H683-bA.
T18 chain: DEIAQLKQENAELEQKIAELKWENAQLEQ

In assay [19] the target is T19, 4H3926-bA.
T19 chain: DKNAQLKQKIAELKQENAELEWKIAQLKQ

Assay [20] concerns the target T20, 4H575-bA.
T20 chain: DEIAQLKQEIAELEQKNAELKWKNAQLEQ

The target of assay [21] is T21, 4H3427-bA.
T21 chain: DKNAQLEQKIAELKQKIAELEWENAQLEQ

The target in assay [22] is T22, 4H953-bA.
T22 chain: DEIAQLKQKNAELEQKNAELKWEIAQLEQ

Assay [23] concerns the target T23, 4H3843-bN.
T23 chain: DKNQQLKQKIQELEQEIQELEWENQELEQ

Assay [24] deals with T24, 4H918-bN.
T24 chain: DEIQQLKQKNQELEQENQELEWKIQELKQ

The target in assay [25] is T25, 4H967-bN.
T25 chain: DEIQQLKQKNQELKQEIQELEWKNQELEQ

The target of assay [26] is T26, 4H370-bN.
T26 chain: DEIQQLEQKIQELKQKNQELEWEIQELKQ

The target in assay [27] is T27, 4H607-bN.
T27 chain: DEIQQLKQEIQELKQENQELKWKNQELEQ

Assay [28] concerns the target T28, 4H797-bN.
T28 chain: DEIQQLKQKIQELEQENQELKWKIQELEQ

In assay [29] the target is T29, 4H687-bN.
T29 chain: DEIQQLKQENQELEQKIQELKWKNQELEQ

In assay [30] the target is T30, 4H72-bN.
T30 chain: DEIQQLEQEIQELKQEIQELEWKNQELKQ

The target in assay [31] is T31, 4H953-bN.
T31 chain: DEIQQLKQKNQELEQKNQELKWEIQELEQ

Assay [32] deals with T32, 4H4001-bN.
T32 chain: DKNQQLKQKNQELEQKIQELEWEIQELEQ

In assay [33] the target is T33, 4H3606-bN.
T33 chain: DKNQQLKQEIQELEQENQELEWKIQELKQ
The conditions noted are these: mean of both orientations.

Assay [34] deals with T34, 4H3782-bN.
T34 chain: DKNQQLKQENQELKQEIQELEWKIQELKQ

Assay [35] concerns the target T35, 4H883-bN.
T35 chain: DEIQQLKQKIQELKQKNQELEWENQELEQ

Assay [36] deals with T36, 4H462-bN.
T36 chain: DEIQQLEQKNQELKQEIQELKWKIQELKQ

For assay [37], the target named is T37, 4H568-bN.
T37 chain: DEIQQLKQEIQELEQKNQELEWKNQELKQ

On to DKISQLKQEISELEQKNSELKWKNSQLKQ [O4-bS], for which the interaction score in [1] was 0.143; in [2], -1.26; in [3], 0.414; in assay [4] it was -2.55; in [5] it was -0.823; in assay [6], -0.221.

Turning to DKIAQLKQKNAELKQEIAELEWEIAQLKQ [4H3010-bA], the interaction score is 0.722 in [7]; -1.32 in assay [8]; -1.79 in [9]; -0.579 in assay [10]; -0.267 in assay [11]; -0.854 in [12]. The interaction score in [13] is -0.693; in [14] it was -0.9; in [15], -0.928; in assay [16], 1.48; in [17] it was 0.824; in assay [18], 0.693. Besides, the interaction score was 1.35 in assay [19], -0.532 in assay [20], 0.296 in assay [21] and 0.368 in assay [22].

Regarding DKNQQLKQEIQELEQENQELEWKIQELKQ [4H3606-bN], the interaction score in assay [23] is -0.0433; in assay [24], -0.149; in assay [25] it was -1.43; in assay [26] it was -0.0845; in assay [27], 0.0432; in assay [28] it was -0.386. In addition, the interaction score in assay [29] was 0.128; in [30] it was -0.312; in assay [31] it was -0.614; in assay [32], -0.219; in assay [33], -0.385; in [34] it was -0.77. For the same molecule, the values for the interaction score in assay [35], in [36] and in assay [37] were -1.5, -0.288 and 1.07, respectively.
